According to article PMC9114768 (2022):

B1: monoclonal antibody 127 (antibody, V domains shown)
VH: QVQLQQPGAELVKPGASVKLSCKASGYTFTSYWMHWVKQRPGQGLEWIGEINPSNGRKNYNEKFKSKATLTVDKSSSTAYMQLSSLTSEDSAVYYCVRGDYGSSYYWYFDVWGAGTTVTVSS
VL: not shown
B2: monoclonal antibody 150 (antibody, V domains shown)
VH: B1 VH
VL: not shown

Experiments:
[1] = target: C-terminal Fc-tagged human ACE2 recombinant protein (human, UniProt Q9BYF1); assay: SPR
[2] = target: His-tagged SARS-CoV-2 S1-RBD recombinant protein, wild type (SARS-CoV-2, UniProt P0DTC2 319-541); assay: SPR

Sequence of C-terminal Fc-tagged human ACE2 recombinant protein (Q9BYF1 18-740): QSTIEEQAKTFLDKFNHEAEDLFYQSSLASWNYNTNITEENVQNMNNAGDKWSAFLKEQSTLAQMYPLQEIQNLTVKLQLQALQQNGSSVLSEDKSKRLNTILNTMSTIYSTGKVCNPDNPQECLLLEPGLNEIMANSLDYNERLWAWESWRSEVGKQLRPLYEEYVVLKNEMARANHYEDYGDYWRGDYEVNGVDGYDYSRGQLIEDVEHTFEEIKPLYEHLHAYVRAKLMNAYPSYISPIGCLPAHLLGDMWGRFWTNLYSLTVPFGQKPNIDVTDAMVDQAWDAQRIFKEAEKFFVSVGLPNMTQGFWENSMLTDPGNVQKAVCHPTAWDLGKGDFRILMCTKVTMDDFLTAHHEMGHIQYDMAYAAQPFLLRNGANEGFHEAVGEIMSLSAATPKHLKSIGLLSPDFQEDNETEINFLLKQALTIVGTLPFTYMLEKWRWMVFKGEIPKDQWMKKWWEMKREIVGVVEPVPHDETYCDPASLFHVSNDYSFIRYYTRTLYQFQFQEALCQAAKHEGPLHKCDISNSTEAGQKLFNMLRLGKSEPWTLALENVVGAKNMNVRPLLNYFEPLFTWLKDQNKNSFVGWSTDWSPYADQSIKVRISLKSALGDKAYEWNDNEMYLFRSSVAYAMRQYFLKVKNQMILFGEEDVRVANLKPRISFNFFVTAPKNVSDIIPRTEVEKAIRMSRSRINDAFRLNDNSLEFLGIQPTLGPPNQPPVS

Binder | koff [1] [s⁻¹] | koff [2] [s⁻¹]
B1 | 0.000442 | 0.00013
B2 | 0.00039 | 0.000441
